Literature values in US8349318B2, “Use of specifically engineered enzymes to enhance the efficacy of prodrugs” (The Board of Trustees of the University of Illinois, priority 2008, dated 2013).

B1: dNK: Drosophila melanogaster nucleoside kinase, SEQ ID NO:3 (protein)
chain: MAEAASCARKGTKYAEGTQPFTVLIEGNIGSGKTTYLNHFEKYKNDICLLTEPVEKWRNVNGVNLLELMYKDPKKWAMPFQSYVTLTMLQSHTAPTNKKLKIMERSIFSARYCFVENMRRNGSLEQGMYNTLEEWYKFIEESIHVQADLIIYLRTSPEVAYERIRQRARSEESCVPLKYLQELHELHEDWLIHQRRPQSCKVLVLDADLNLENIGTEYQRSESSIFDAISSNQQPSPVLVSPSKRQRVAR
modifications: Drosophila melanogaster
For B1, the “kcat for dC phosphorylation” value (Knecht et al., 2002) is given as 16.5 s⁻¹ and the “efficiency for dC phosphorylation, higher than dCK” value (compared with dCK) is given as 2,500 fold.
